# Source: the DeepSol protein solubility set
# Experiment: soluble on expression in E. coli; label from the status in PepcDB or PDB records
row,Sequence,soluble on expression in E. coli
1,MAHKGTESKEQIWPYKITIGICAMNRKATSKPMRAIMKKIIDFYGQWVDSFIFPEQVIINEPVENWPLCHCLVSFHSTEFPLEKAIAYVKLRNPYVINNLDRQYDLLDRRTVFKILSDNGIEHPRHGYVIRGRPNEPDTELVEHPDHIEVNGEVFNKPFVEKPISSEDHNVYIYYPSSVGGGSQRLFRKINNRSSWYSPKSEVRKEGSYIYEEFIPADGTDVKVYAVGPFYAHAEARKAPGLDGKVERDSDGKEVRYPVILSNKEKQIAKKIVLAFGQTVCGFDLLRANGKSYVCDVNGFSFVKTSTKYYEDTAKILGNQIVRHYAKSKNWRVPSDMPQPPILDLGLGDDPPMITTPSGKLAELRCVVAVIRHGDRTPKQKMKLIVTDQRFFALFEKYDGYKKHEIKMKKPNQLMEVLELARALVIEKQRDRHQILEKLREGTGEEEIHKSEHDLEVCEEEMKKWEQMRTVLEMYGHFSGINRKVQMKYLKERETKTSDEELRREGPALLLILKWGGELTTAGNMQAEALGRLFRTLYPGIRRTDGKSSPEDTQGLGFLRLHSTYRHDLKIYASDEGRVQTTAAAFAKGLLALEGELTPILMQMVKSANTDGLLDDDCQARLYQTELKRYLHKALQADRDFTPQDYLELNPNGLRAITAAMEFIKNPRKMCHEIAGYVEKMCGVIVEYSQTRPTGSTLYLQESMDLAQRRWNKELREFRRKNKHGEVEFDISKIPDIYDNIKYDMEHNPDLCINNEVEFERMYVCVKNMADIVVPQEYGIKTENKMVIAQRVCTPLLRKIRNDLHRCLENKESEETQTRLDPRASQGIATPFRHVRTRLYFTSESHIHTLMNLIRYGNLCSVDDKKWQRAMNFLSGVTEFNYMTQVVLMVYEDSRKENDEADTGPRFHIEILFSPGLYPCFLTEKERIYETRFNLSTNPKPATSSRSSGRESRDTNDSASSSTEGRRPSIEKVVTVVTPTQLSTPSVTNDDLSISSNAESTAAESTGLVNTTTKTHNDSEDDLNDVESVNLVALDELNNTTKASQRGSFHVTEPIQIDEKTRRYFPYRFKHHTAQLLTGMSGGGVHMQNRLISTDVLTGKFGDHDNKKNSRKDFGAGTAVLSTAVIARSSSAPRLMTYESEDFSVGEIKRFWPPLRSLETLHDSINLSQFDGFLERLIKGALTPLPSPPKTPLPSALSCDAINKTPTQDEVEKVIGKLAPTSSTD,not soluble
2,MAHQEHFQFGYRRHRDQDRQDPARHPVVVVGAGPVGLSLAIDLAQRGQNVVLLDDADRIGEGSRAICFSKRALEVWDRLGVGAQMVEKGVVWQVGKIFRRDEMVYRFDLLPETGHKMPAFINLQQYYAEAFLVGRVQQLPQIDLRWRNKVTALAQHNDHAELTIETPDGPYRLAADYVIACDGARSSLRGMVGAEFAGEVFEDQFLIADVKMTAAFPTERWFWFDPPFHSGQSALLHRQPDDVWRIDLQIGPEADAAVERQPERVRPRIERMLGHGDFSFEWISIYKFQCRRMQRFLHERVIFAGDSAHQVSPFGARGANSGLEDGENLAWKLDLVLRGQAPASLLDSYDIERSQAADDNIRHSTRSTDFIAPHSKQERRLRDAVLALAHDVEFAKRMVNAGRLSTPSVYQSSLSTDDVDVWSSGPVPGAAMRDAPLRAADGTLVYLTEAFMQAGGGFVLLERANGAAAPVPQGVRSLRIGGDAPLRDDEGVFAARYDATPGAAYLLRPDGYVAARFRHPTQAAVDAALARACGRLEHHHHHH,not soluble
3,MAHRKTTTKNGNGGTLGFEAELFKAADKLRGNMEPSDYKHVALGLIFLKYISDAFEAKHSALLAEDAQAAEDKDEYLAHNVFWVPKQARWSHLKANAKQSTIGTLIDEAMRDIEKDNPSLKHVLPKDYARPALNKVMLGELIDLISGIALNEEGARSKDILGRVYEYFLGQFAGAEGKRGGEFYTPRSVVRVLVQMLEPYSGRVYDPCCGSGGMFVQSEKFVLEHGGRIGDIAIYGQESNYTTWRLAKMNLAVRGIDSDIRWNNEGSFHNDALRDLKADYILANPPFNISDWGGDRLREDVRWKFGVPPAGNANYAWLQHIYHHLAPNGTAGVVLANGSMSSNHSGEGEIRTHMIEADIVDCMIAMPGQLFYSTQIPACLWFLARNKNPGKGLRDRRGQVLLMDARALGVLVDRTRRELTDEHIQQIADTYHAWRGEQGAAAYADVAGFCKSATLEDIRKQGYVLTPGRYVGAVEREDDGEPFPQKMQRLSAQWRAQRAAAAKLDAAIAANLKELGYGG,soluble
4,MAIDFNAMPPSTWAENLARNQLSKLQTQLDTQTKSAKARTDALSQLQKALQDYKSSLATLTGKKSLVAMNAAATPDGMASVTAKGNAAAGNYSVFVEQLASSQQ,not soluble
5,MAIDVLDVISLSLFKQQIEFEEDDRDELITLYAQAAFDYCMRWCDEPAWKVAADIPAAVKGAVLLVFADMFEHRTAQSEVQLYENAAAERMMFIHRNWRGKAESEEGS,soluble
6,MAIIYAVRERTQSKTAMRKVMDYVVQDKKTMYENENGQRCKLVSGQNCCGDTAFKEFMTTKRQYQKEKGVYFYQYIQSFKPGIHATPQEIHQMGVELAKYFKGYEVQIATHIDRDHWHNHLIVNSVSCETGLKLQFNEKNLEQLRTLSDEICAVHGLDTLKPYQKPKQKPMGAGEYRAAVRGGSYKFKLMNAIDQAMTQSRTREEFIVRMEQMGYQVKWNPHHKYITYTTPEGQRCRDNKLHETKYLKTEMEGYFSAKLRRIEAAQQAGYTGGHPTGTTPADRSSALSAAGQRNTHRPMEHDAGEPDRSHTAVAGIDGIHIHPANRRRRKQYDEELLPERLRQADGSPVEYHTERASADYGEYDFEYGEDDGYDWMEADEYTGALGRKAPAPGHVAHKNESQMGRHRGIDFDDIVALAKAVDDLVNPYNPEEEREKKKKYVPKSDHKKQKKKQHHNHDYELSL,soluble
7,MAIKLIAIDMDGTLLLPDHTISPAVKNAIAAARARGVNVVLTTGRPYAGVHNYLKELHMEQPGDYCITYNGALVQKAADGSTVAQTALSYDDYRFLEKLSREVGSHFHALDRTTLYTANRDISYYTVHESFVATIPLVFCEAEKMDPNTQFLKVMMIDEPAILDQAIARIPQEVKEKYTVLKSAPYFLEILDKRVNKGTGVKSLADVLGIKPEEIMAIGDQENDIAMIEYAGVGVAMDNAIPSVKEVANFVTKSNLEDGVAFAIEKYVLN,not soluble
8,MAIKVGINGFGRIGRSFFRASWGREEIEIVAINDLTDAKHLAHLLKYDSVHGIFKGSVEAKDDSIVVDGKEIKVFAQKDPSQIPWGDLGVDVVIEATGVFRDRENASKHLQGGAKKVIITAPAKNPDITVVLGVNEEKYNPKEHNIISNASCTTNCLAPCVKVLNEAFGVEKGYMVTVHAYTNDQRLLDLPHKDFRRARAAAINIVPTTTGAAKAIGEVIPELKGKLDGTARRVPVPDGSLIDLTVVVNKAPSSVEEVNEKFREAAQKYRESGKVYLKEILQYCEDPIVSTDIVGNPHSAIFDAPLTQVIDNLVHIAAWYDNEWGYSCRLRDLVIYLAERGL,soluble
9,MAILKAQHLAKSYKKRKVVSDVSLQVESGQIVGLLGPNGAGKTTSFYMIVGLVARDEGTITIDDNDISILPMHSRSRMGIGYLPQEASIFRKLSVEDNIMAVLQTREELTHEERQDKLEDLLEEFHIQHIRKSAGMALSGGERRRVEIARALAANPQFILLDEPFAGVDPISVIDIKKIIEHLRDRGLGVLITDHNVRETLDVCEKAYIVSQGRLIAEGTPQDVLNNEQVKQVYLGEQFRL,not soluble
10,MAIMRVNPTRMELTRLKKRLQVARRGHKLLKDKLDELMKQFLDLVRKNKELREKVEEMLMKAHQDFLIARAVMSSEGLEAALMLPKQSISLDVSTQNIMSVEVPVLKFTTSSSDESDIYPYGFASTSGELDGAILTLSKVLPYMLELAQMEKSSQLLAQEIEKTRRRVNALEYVMIPQLTETIKYISMKLDENERGNITRLMKVKDMMLEQAHNFKEKLNEA,soluble
11,MAIQTVSTKPFANQKPGTSGLRNKVIAFQQPRYLENFVQSIFNSLDDIEGKTLVVGGDGRYYNDVAIQIIVRMAAANGFAKIIVGQNGIFSTPAVSCVIRKYEAFGGIVLSASHNPGGPKGDFGIKYNVSNGGPAPEKITDRIFSETKKINQYFISDAAKESVDLDKLGTYKIENTTVEVINSVIDYAELMQQIFDFDKVRELFAKGFKVRFDSMCAVSGPYAKYIFETLLKAPAGTVVNAQPLEDFGGFHPDPNPVNAEDLVKHMRSGKYDFGAASDGDADRNMIVGKQIDVSPSDSLAIMAANAHLIPVYSKGIKGVARSMPTSTAVDRVAESLRLPCFETPTGWKFFGNLLDAEKITLCGEESYGTGSNHIREKDGVWAVLFWLNLVAVTGKQVDQLVEEHWQKFGRNFYSRHDYEAIDTAIANSIIDSLRERLSSLVGAQLNDEKVAKADDFSYIDPIDGLVSNHQGIRIIFEDGSRIVFRLSGTGTQGATLRIYLEKYESDSSKFSIPTQQALASLIEIAEDLTNIKSLTGMTEPTVVT,not soluble
12,MAIYYNGLKIESNEEVYEPAEDTFLLAESLLDEVKSDDIVLDVGTGTGILALLAARRARFVVGLDINEKAINLAWKNAKINGIKNVVFILSDLFENIRGTFDLIVFNPPYLPGEEIKDKVDLALIGGKTGGEVISRFLGSVKDYLSSRGRILLIYSSLTGLDVEKAFKERGFSTSIVKRRRFFFEELYVMKAELSSRL,soluble
13,MAKENYSDPNGKLLNSITTFEVNGEEVKLSGNIIRDYLVSGNAEVTDQEIIMFLQLCKYQKLNPFLNEAYLVKFKNTKGPDKPAQIIVSKEAFMKRAETHEQYDGFEAGIIVERNGEVVEIEGAVSLDKDKLLGGWAKVFRKDRSRPVSVRISEREFNKRQSTWNAMPLTMMRKTAVVNAMREAFPDNLGAMYTEEEQGSLQNNETSVQEEIKQNANTEMLDIPAQQIEVPDFKEIREPEHVEMPPIYDEQPSTPPARPY,not soluble
14,MAKHEQILVLDPPSDLKFKGPFTDVVTTNLKLQNPSDRKVCFKVKTTAPRRYCVRPNSGIIDPGSIVTVSVMLQPFDYDPNEKSKHKFMVQTIFAPPNISDMEAVWKEAKPDELMDSKLRCVFEMPNENDKLND,soluble
15,MAKITVGTENQAPIEIYYEDHGTGKPVVLIHGWPLSGRSWEYQVPALVEAGYRVITYDRRGFGKSSQPWEGYEYDTFTSDLHQLLEQLELQNVTLVGFSMGGGEVARYISTYGTDRIEKVVFAGAVPPYLYKSEDHPEGALDDATIETFKSGVINDRLAFLDEFTKGFFAAGDRTDLVSESFRLYNWDIAAGASPKGTLDCITAFSKTDFRKDLEKFNIPTLIIHGDSDATVPFEYSGKLTHEAIPNSKVALIKGGPHGLNATHAKEFNEALLLFLKD,not soluble
16,MAKIVLVLYDAGKHAADEEKLYGCTENKLGIANWLKDQGHELITTSDEEGGNSVLDQHIPDADIIITTPFHPAYITKERIDKAKKLKLVVVAGVGSDHIDLDYINQTGKKISVLEVTGSNVVSVAEHVVMTMLVLVRNFVPAHEQIINHDWEVAAIAKDAYDIEGKTIATIGAGRIGYRVLERLVPFNPKELLYYDYQALPKDAEEKVGARRVENIEELVAQADIVTVNAPLHAGTKGLINKELLSKFKKGAWLVNTARGAICVAEDVAAALESGQLRGYGGDVWFPQPAPKDHPWRDMRNKYGAGNAMTPHYSGTTLDAQTRYAQGTKNILESFFTGKFDYRPQDIILLNGEYVTKAYGKHDKK,soluble
17,MAKKTSSKGKLPPGPSPLPVLGNLLQMDRKGLLRSFLRLREKYGDVFTVYLGSRPVVVLCGTDAIREALVDQAEAFSGRGKIAVVDPIFQGYGVIFANGERWRALRRFSLATMRDFGMGKRSVEERIQEEARCLVEELRKSKGALLDNTLLFHSITSNIICSIVFGKRFDYKDPVFLRLLDLFFQSFSLISSFSSQVFELFSGFLKYFPGTHRQIYRNLQEINTFIGQSVEKHRATLDPSNPRDFIDVYLLRMEKDKSDPSSEFHHQNLILTVLSLFFAGTETTSTTLRYGFLLMLKYPHVTERVQKEIEQVIGSHRPPALDDRAKMPYTDAVIHEIQRLGDLIPFGVPHTVTKDTQFRGYVIPKNTEVFPVLSSALHDPRYFETPNTFNPGHFLDANGALKRNEGFMPFSLGKRICLGEGIARTELFLFFTTILQNFSIASPVPPEDIDLTPRESGVGNVPPSYQIRFLARHHHHHH,soluble
